One may read the koff as the first-order rate constant of dissociation. The low end stands for a long-lived complex, the high end for a short-lived complex. Usually kon stands for the rate constant with which the complex forms.

Two molecules from patent US20110014656A1 (ZymoGenetics, published 2011) can be followed below.

Values joined by “and” are separate entries in the source; they are usually repeats but may differ in a detail not shown here. Equal values may be shown once.

Assay [1] concerns the target T1, IL17A-CH6/IL17F-CEE 2 chain heterodimer (human, UniProt Q16552 24-155; Q96PD4 31-163).
T1 construct: The entries may include a signal peptide; also called IL-17A/F heterodimer; zcyto40f2v.1-2chain
T1 sequence 1: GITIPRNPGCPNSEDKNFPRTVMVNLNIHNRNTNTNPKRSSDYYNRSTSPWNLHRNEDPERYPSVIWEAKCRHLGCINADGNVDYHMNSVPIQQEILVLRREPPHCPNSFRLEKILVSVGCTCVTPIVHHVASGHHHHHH
T1 sequence 2: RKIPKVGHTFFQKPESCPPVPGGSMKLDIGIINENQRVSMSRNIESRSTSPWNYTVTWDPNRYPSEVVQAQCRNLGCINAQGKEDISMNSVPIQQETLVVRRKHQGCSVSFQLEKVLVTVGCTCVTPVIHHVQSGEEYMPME
The experiment in a line: Biacore T100, receptor captured by anti-human IgG Fc-gamma on CM4 chip; KD1 of the bivalent analyte model. The protocol: (§1) The binding kinetics and affinity study was performed on a Biacore T100™ system (GE Healthcare, Piscataway, N.J.). Methods for the Biacore T100™ were programmed using Biacore T100™ Control Software, v 1.1.1. […] The capture antibody was covalently immobilized to a CM4 sensor chip using a mixture of 0.4 M EDC [N-ethyl-N′-(3-[…])carbodiimide] and 0.1 M NHS (N-hydroxysuccinimide) to a density of approximately 4000 RU. […] Capture of the receptor to the immobilized surface was performed at a flow rate of 10 μL/min. The Biacore instrument measures the mass of protein bound to the sensor chip surface, and thus, capture of the soluble receptor was verified for each analysis cycle.
(§2) Between analysis cycles, the flow cell was washed with 20 mM hydrochloric acid to regenerate the surface. […] Data was compiled using the Biacore T100™ Evaluation software (version 1.1.1). Data was processed by subtracting reference flow cell and blank injections. Baseline stability was assessed to ensure that the regeneration step provided a consistent binding surface throughout the sequence of injections. Duplicate injection curves were checked for reproducibility. […] If only one portion of the heterodimer binds to the receptor, a simple 1:1 binding model would be appropriate and the curves should fit well to this model. […]
(Surface plasmon resonance follows binding to a sensor surface in real time, without labels.)

For assay [2], the target named is T1, IL17A-CH6/IL17F-CEE 2 chain heterodimer. The experiment in a line: Biacore T100, receptor captured by anti-human IgG Fc-gamma on CM4 chip; kd1 of the bivalent analyte model. The procedure:
as §1, §2

In assay [3] the target is T2, human IL-17A (human, UniProt Q16552 24-155).
T2 sequence: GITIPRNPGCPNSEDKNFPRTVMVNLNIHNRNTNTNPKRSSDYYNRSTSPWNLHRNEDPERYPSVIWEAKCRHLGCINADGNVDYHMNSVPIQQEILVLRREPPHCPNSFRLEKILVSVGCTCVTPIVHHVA
The experiment in a line: cell-based or functional assay.

Assay [4] concerns the target T3, human IL-17F (human, UniProt Q96PD4 31-163).
T3 sequence: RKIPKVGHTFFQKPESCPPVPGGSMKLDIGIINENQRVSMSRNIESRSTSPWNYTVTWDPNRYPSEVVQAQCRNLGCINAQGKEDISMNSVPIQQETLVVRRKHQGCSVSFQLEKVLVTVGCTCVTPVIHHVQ
The experiment in a line: cell-based or functional assay.

In assay [5] the target is T2, human IL-17A. The experiment in a line: cell-based or functional assay. This is another data set of the same source.
Assay [6] addresses single chain human IL17A:IL17F heterodimer (human). The experiment in a line: cell-based or functional assay.
Assay [7] deals with T3, human IL-17F. The experiment in a line: cell-based or functional assay. This is another data set of the same source.
For assay [8], the target named is T1, IL17A-CH6/IL17F-CEE 2 chain heterodimer. The experiment in a line: cell-based or functional assay.
The target is the same in assay [9]. The experiment in a line: Biacore T100, receptor captured by anti-human IgG Fc-gamma on CM4 chip; ka1 of the bivalent analyte model. The procedure:
as §1, §2

Assay [10] addresses T2, human IL-17A. The experiment in a line: Biacore, receptor captured by anti-human IgG Fc on CM5 chip, ligand as analyte. From the text: (§3) The protocol was optimized to capture receptor at a theoretical binding max. before injecting a concentration series of each ligand to observe association and dissociation. […] The surface was regenerated with 2×30 sec. injections of pH 1.75 glycine between cycles.

In assay [11] the target is T3, human IL-17F. The assay is described as above.
Description: as §3

The target of assay [12] is T1, IL17A-CH6/IL17F-CEE 2 chain heterodimer. The experiment in a line: Biacore T100, receptor captured by anti-human IgG Fc-gamma on CM4 chip; KA1 of the bivalent analyte model. The procedure: as §1, §2
The target in assay [13] is T2, human IL-17A. The experiment in a line: Biacore, summary of Table 11.
Description: as §3

The target of assay [14] is T3, human IL-17F. The experiment in a line: Biacore, summary of Table 11.
Description: as §3

Assay [15] addresses T4, human IL-17RC, x1 splice variant, on transfected cells (human, UniProt Q8NAC3 21-791).
T4 sequence: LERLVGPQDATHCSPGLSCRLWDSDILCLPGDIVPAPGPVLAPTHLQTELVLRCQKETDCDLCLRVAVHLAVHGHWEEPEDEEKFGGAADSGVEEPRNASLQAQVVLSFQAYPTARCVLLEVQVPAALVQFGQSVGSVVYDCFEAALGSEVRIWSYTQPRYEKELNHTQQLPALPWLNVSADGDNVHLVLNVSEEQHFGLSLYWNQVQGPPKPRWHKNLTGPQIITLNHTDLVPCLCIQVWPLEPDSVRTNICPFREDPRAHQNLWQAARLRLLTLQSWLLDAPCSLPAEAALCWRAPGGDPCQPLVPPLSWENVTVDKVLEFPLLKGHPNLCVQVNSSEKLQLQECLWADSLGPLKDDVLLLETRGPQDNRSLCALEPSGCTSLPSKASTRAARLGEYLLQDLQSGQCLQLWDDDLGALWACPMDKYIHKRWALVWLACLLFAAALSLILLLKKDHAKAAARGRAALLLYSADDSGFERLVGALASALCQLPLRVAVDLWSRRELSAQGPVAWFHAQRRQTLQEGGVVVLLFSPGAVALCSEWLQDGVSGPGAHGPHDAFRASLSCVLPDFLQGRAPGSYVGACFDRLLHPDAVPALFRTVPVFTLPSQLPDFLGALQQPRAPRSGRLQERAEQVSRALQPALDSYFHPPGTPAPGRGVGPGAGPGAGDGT
The experiment in a line: cell-based or functional assay.

Assay [16] has as its target T5, human IL-17RC, x4 splice variant, on transfected cells (human, UniProt Q8NAC3 21-791).
T5 construct: Expressed on 293F, BHK or NIH3T3 cells; also called hIL-17RCx4; hIL-17RCX4
T5 sequence: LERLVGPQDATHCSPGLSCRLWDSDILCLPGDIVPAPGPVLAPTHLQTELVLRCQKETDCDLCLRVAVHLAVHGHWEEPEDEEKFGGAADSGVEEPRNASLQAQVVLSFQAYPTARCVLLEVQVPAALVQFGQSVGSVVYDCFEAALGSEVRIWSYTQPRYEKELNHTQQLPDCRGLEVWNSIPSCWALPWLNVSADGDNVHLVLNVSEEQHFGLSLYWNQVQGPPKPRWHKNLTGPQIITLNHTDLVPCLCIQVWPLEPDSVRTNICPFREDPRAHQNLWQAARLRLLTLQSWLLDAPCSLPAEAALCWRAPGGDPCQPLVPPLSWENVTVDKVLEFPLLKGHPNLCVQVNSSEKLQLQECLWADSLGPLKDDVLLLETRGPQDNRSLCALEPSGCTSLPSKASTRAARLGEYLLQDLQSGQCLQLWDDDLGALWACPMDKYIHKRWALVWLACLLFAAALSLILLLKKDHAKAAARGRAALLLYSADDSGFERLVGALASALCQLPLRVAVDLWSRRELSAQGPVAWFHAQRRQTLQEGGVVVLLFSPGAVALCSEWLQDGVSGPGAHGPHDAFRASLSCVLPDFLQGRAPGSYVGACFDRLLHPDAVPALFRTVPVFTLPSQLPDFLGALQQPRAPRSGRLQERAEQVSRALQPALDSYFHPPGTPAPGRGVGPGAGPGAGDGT
The experiment in a line: FACS, biotinylated cytokine on transiently transfected 293F cells. From the text:
(§4) However, the other splice variants tested either included or excluded hIL-17RC exon 12. These variants were designated hIL-17RCx1 (identical in exon composition to mouse x1 above), hIL-17RCx4 (identical in exon composition to mouse x4 above), hIL-17RCx2, and hIL-17RCx7.
(In general: In flow cytometry, cells or beads pass a laser one at a time.)

Assay [17] addresses T4, human IL-17RC, x1 splice variant, on …. The description is as above.
Description: as §4

Another assay addresses T6, murine IL-17RA-Ig (mouse, UniProt Q60943 32-322).
T6 construct: also called mL-17RA-Ig; mIL-17RA-Fc; not shown: Ig/Fc part
T6 sequence (looked up): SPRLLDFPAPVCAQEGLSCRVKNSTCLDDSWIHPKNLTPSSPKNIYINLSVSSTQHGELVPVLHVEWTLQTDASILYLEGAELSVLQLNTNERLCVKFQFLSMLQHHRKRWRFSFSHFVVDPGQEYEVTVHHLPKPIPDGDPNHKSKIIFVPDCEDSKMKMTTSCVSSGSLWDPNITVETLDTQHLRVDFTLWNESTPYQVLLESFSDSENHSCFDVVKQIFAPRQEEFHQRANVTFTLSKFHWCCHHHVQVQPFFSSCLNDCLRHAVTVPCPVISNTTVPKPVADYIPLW
The experiment in a line: Biacore, soluble receptor captured on chip, cytokine as analyte.

B1: Variant 1454, soluble IL-17RC/IL-17RA polypeptide fused to Fc5 (Fc fusion)
chain: LRLLDHRALVCSQPGLNCTVKNSTCLDDSWIHPRNLTPSSPKDLQIQLHFAHTQQGDLFPVAHIEWTLQTDASILYLEGAELSVLQLNTNERLCVRFEFLSKLRHHHRRWRFTFSHFVVDPDQEYEVTVHHLPKPIPDGDPNHQSKNFLVPDCEHARMKVTTPCMSSALPWLNVSADGDNVHLVLNVSEEQHFGLSLYWNQVQGPPKPRWHKNLTGPQIITLNHTDLVPCLCIQVWPLEPDSVRTNICPFREDPRAHQNLWQAARLRLLTLQSWLLDAPCSLPAEAALCWRAPGGDPCQPLVPPLSWENVTVDKVLEFPLLKGHPNLCVQVNSSEKLQLQECLWADSLGPLKDDVLLLETRGPQDNRSLCALEPSGCTSLPSKASTRAARLGEYLLQDLQSGQCLQLWDDDLGALWACPMDKYIHKEPKSSDKTHTCPPCPAPEAEGAPSVFLFPPKPKDTLMISRTPEVTCVVVDVSHEDPEVKFNWYVDGVEVHNAKTKPREEQYNSTYRVVSVLTVLHQDWLNGKEYKCKVSNKALPSSIEKTISKAKGQPREPQVYTLPPSRDELTKNQVSLTCLVKGFYPSDIAVEWESNGQPENNYKTTPPVLDSDGSFFLYSKLTVDKSRWQQGNVFSCSVMHEALHNHYTQKSLSLSPGK
notes: also called IL-17RA/RC-Fc5; IL17RA/RC 1454
Consider B1, for which the Kd was 4 nM in assay [1]; 0.0439 nM and 0.0382 nM with human IL-17A [10]; 0.143 nM and 0.126 nM with human IL-17F [11]; around 0.04 nM with human IL-17A [13]; around 0.14 nM with human IL-17F [14]. In addition, the koff is 0.002 s⁻¹ in [2]; 6.22e-05 s⁻¹ and 9.95e-05 s⁻¹ in the assay with human IL-17A [10]; 0.000261 s⁻¹ and 0.000315 s⁻¹ in the assay with human IL-17F [11]. Besides, in the assay with human IL-17A [3], the “IC50, huIL-17A(10 ng/ml) induction of G-CSF in SAEC” value was 0.14 µg/mL. In addition, in the assay with human IL-17A [3], the “IC50, huIL-17A(10 ng/ml) induction of IL-8 in SAEC” value amounted to 0.03 µg/mL. Further, in the assay with human IL-17F [4], the “IC50, huIL-17F(50 ng/ml) induction of G-CSF in SAEC” value was 1.2 µg/mL. The “IC50, huIL-17F(50 ng/ml) induction of IL-8 in SAEC” value with human IL-17F [4] turned out to be 0.57 µg/mL. The “IC50, NIH-3T3/KZ170 luciferase reporter neutralization assay” value with human IL-17A [5] is 0.167 nM; in assay [6], 13.3 nM; in the assay with human IL-17F [7], 0.874 nM; in assay [8], 3.17 nM. Besides, the “IC50, luciferase in hIL-17RA/NIH3T3/KZ142.8 cells, 0.5 ng/ml IL-17A” value with human IL-17A [5] stood at 0.001 µg/mL. Besides, the “IC50, luciferase in hIL-17RA/NIH3T3/KZ142.8 cells, 20 ng/ml IL-17F” value in the assay with human IL-17F [7] stood at 0.48 µg/mL. Besides, the “IC50, luciferase in hIL-17RCX4/NIH3T3/KZ142.8 cells, 1 ng/ml IL-17F” value with human IL-17F [7] was determined as 0.8 µg/mL. The kon in assay [9] is 500000 M⁻¹ s⁻¹; with human IL-17A [10] it was 1.42e+06 M⁻¹ s⁻¹ and 2.61e+06 M⁻¹ s⁻¹; with human IL-17F [11], 1.82e+06 M⁻¹ s⁻¹ and 2.49e+06 M⁻¹ s⁻¹. In [12], this molecule yielded a Ka of 2e+08 M⁻¹.

B2: murine IL-17A (ligand)
chain: AAIIPQSSACPNTEAKDFLQNVKVNLKVFNSLGAKVSSRRPSDYLNRSTSPWTLHRNEDPDRYPSVIWEAQCRHQRCVNAEGKLDHHMNSVLIQQEILVLKREPESCPFTFRVEKMLVGVGCTCVASIVRQAA
notes: also called mIL-17A; mIL17A
With B2, the “EC50, luciferase in nih3t3/kz142.8/hcytor14x1 cells” value in assay [15] was around 0.004 µg/mL. Besides, the binding result in assay [16] and in assay [17] was “no binding” throughout. For the same molecule, the Kd in the assay with murine IL-17RA-Ig was 0.069 nM and 0.072 nM.
